This data set in a line: soluble on expression in E. coli; label from the status in PepcDB or PDB records.
As to “SGVTGAHGFPCCGKGSVEVAEMRDDLSQHQIQEEQELEADMLEQKPQLQVDLDLDPDPDPDPELEIGQVPALLESELYPALKLEAELDTEANSNEESDFEEPMQLVCKIESVHSNMGLPTPQTFRPWSLNSNCRSFTEENHMSACHHSISAQTSKHLFWANKLIQASEHSLQRAINMQLNNGSAGQPIRSPLREAIPTNALCSEEQLQIPDAHSAPPTTSSQAPSPLLSSDLPPPIDLTELITFASSLAMASSSRMDLPSLEHMMKAPPQEALEPSTEPLLTTVEEREPENHAETLPEKPREARAPLKSWSQEDKNFAQSYFDFSKPGIKRATIKGQIQLLQPPATSPLLQGSKEDSVPPGKEKENPLLVKIHFKLSAPTIPEK”, the “soluble on expression in E. coli” value was “soluble”.

“MRIEVVNVSHIFHRGTPLEKKALENVSLVINEGECLLVAGNTGSGKSTLLQIVAGLIEPTSGDVLYDGERKKGYEIRRNIGIAFQYPEDQFFAERVFDEVAFAVKNFYPDRDPVPLVKKAMEFVGLDFDSFKDRVPFFLSGGEKRRVAIASVIVHEPDILILDEPLVGLDREGKTDLLRIVEKWKTLGKTVILISHDIETVINHVDRVVVLEKGKKVFDGTRMEFLEKYDPRFFTSKMLVMRRLVLKGEDPFSMSDDELLERVCNS”: the “soluble on expression in E. coli” value is given as “soluble”.

Turning to “MSYSIDNPGGGDCGFYALAIGLISIIQNEYKLHGKSKTYDRWKQVENIYGVRLQDILNIDLTKLHYSPYTYKSELLFLLQMSLRNIAVIVNKEDLVKRIIEEGRSKDQTKIEGSNAYCKFMELVQLYLYRRGSLERISQFNELALSPEIVQTARDIARMLRPILRNQPFHQAQKIENAFVKEVLLNDVLSGNTINSNSIILKSLEKIKEQGRWATHDDLKEIAELLKINLNVVGQPNGKPIPEYPTVTLKNLSNTHWITQVESLQGPRQYSTPSKRAFGYETLSDRAVPLKEEQTLDRAFRTETQSERTRRYNQHFETLFDTLSPYGFFPHVQSKRNVHVFGKAQTGLESDEALAAQLQEAELRRILY”, the “soluble on expression in E. coli” value is “not soluble”.

With “MGSDKIHHHHHHMIARKLADLGVDVIEAGFPASSEGEFIATRKIFEEIGDQVEVIGLSRSNKNDIDKTISTGISSIHLFIATSELHMKYKLKMTKEEVLNKIYESVKYAKDHGMIVEFSPEDATRTEEDFLFTAIRTAIEAGADRINIPDTVGTMHPFKYYDMIKKIVNFVGERIIVSVHCHNDFGLATANSLAGVYAGARQAHVTVNGIGERAGNASLEEVVMGIKKLLNYETNVKTWKLYEVSRFVAEMTGVPVPYFKAIVGDNAFGHESGIHVHGVIENPFTYEPISPEEVGNFRRLALGKHSGIHGLRKLLEEQGIYLSDDKLKIVLAEIKKLAESGNKVTVEDAKNIALKLMNS”, the “soluble on expression in E. coli” value is recorded as “not soluble”.

Consider “MSLADLEEALLIIDSDEDVSRHMKEHLTSRGFHVVHCASVKCFTDLKAQVTPDIIIGDLTSDDIKSLYSLLKDVHPRPPIVIHSKRADAENILGALRSGASDYIVKPVADVAVLDEAIQRQIDQVRVYRENQQYRYDLELANKELRAGLEELQADQRAGRHVQMKMLPEREVEYGGIQFDHCIKPSLYLSGDFFDYFRLSSDKIAFYFADVSGHGASSAFVTVLLKNLSNRLQRNLRRQSSDDILYPDRFLKRVNAELLDTDLGKHLTMFAGVIDLQTRVLSYSMGAHFPMPVMSVNGVSRYLDGKGPPVGLFDDPVYPLYEEPLAPGFSLVICSDGLLEVINAKSLAEKEQALLETVQEARHTIPELEKAFGLRWITELPDDIAIVSIMETTEGHHHHHH”, for which the “soluble on expression in E. coli” value is given as “soluble”.

On to “MAHHHHHHMLEDPNFSDFTGLHKSVTALTAANSDLARYGNELHKMILRYQLEVLSGTCNYVEVLSLAAYNGNLTAAEYVNNIEPVILGDDSVSVDIDTRTNTLSFRDSSKAKMLSYFNKIVANVDTVPASSLATTSGRYSDFTHVAASSSKREVMPLAADLDAARARSTSIYALQKACMNSKAERIEEAKKSEDKKRERAVAERREQEEAKKEETQKAYIRKLYAEYNERQRQERGKEVLRKLRIKYPGFKVDESIVYRSAAGFEDELTRLLAAFKRRGVDNDRKEILQANLYERALRALEIPKRKDYEAQNAERTRAERAAARENYLAEHRREYDRRQNEKAVLSKFLHDADEFERTWRKRANIDKPSKRDEQQRLLEEEMRRLGGE”, for which the “soluble on expression in E. coli” value is reported as “not soluble”.

As to “MKMNYHLSTSSYTTSMLSCTVLDDDIRYEKLSWKLDEAEMQGLIM”, the “soluble on expression in E. coli” value is “soluble”.

Regarding “MSFITAFRERVFIASGDLIRTFRISEETELKNFISWSKINPERIQKPSFDIEKELKAVEKRVILCLAHSNVLTTHGRRLVAVGTNEKQIHVFEYFVNDKGDIVTAEHIVTSVVPKAPTAIVFDKEDAYVVVGDRAGDVHRFSVLNGSAIEMAGAISMILDVAFSPDGKRLLMADRDEKVRALRYPATSVIDSFFLGHTEYVKTLAVQDNDSLWSSGGDKNLYNWSIAKCSAPRRTLDLSQFDAPIRKISINLQHKKIAVIFEKIETVVIVDLNQESLQTTSVSIVGESQCLDIASTKDYFAVLGRSTVHLIDLNNMEQKFVPIDEELTITLTSTNDAIDNLFKNVTHNNQQEYEKRKADKFEQIEKKKRRLNEDINGDDGEGPGPSNS”, the “soluble on expression in E. coli” value is “not soluble”.

As for “MKKGTPLPHSDELDAGNVLAVENLNIAFMQDQQKIAAVRNLSFSLQRGETLAIVGESGSGKSVTALALMRLLEQAGGLVQCDKMLLQRRSREVIELSEQNAAQMRHVRGADMAMIFQEPMTSLNPVFTVGEQIAESIRLHQNASREEAMVEAKRMLDQVRIPEAQTILSRYPHQLSGGMRQRVMIAMALSCRPAVLIADEPTTALDVTIQAQILQLIKVLQKEMSMGVIFITHDMGVVAEIADRVLVMYQGEAVETGTVEQIFHAPQHPYTRALLAAVPQLGAMKGLDYPRRFPLISLEHPAKQAPPIEQKTVVDGEPVLRVRNLVTRFPLRSGLLNRVTREVHAVEKVSFDLWPGETLSLVGESGSGKSTTGRALLRLVESQGGEIIFNGQRIDTLSPGKLQALRRDIQFIFQDPYASLDPRQTIGDSIIEPLRVHGLLPGKDAAARVAWLLERVGLLPEHAWRYPHEFSGGQRQRICIARALALNPKVIIADEAVSALDVSIRGQIINLLLDLQRDFGIAYLFISHDMAVVERISHRVAVMYLGQIVEIGPRRAVFENPQHPYTRKLLAAVPVAEPSRQRPQRVLLSDDLPSNIHLRGEEVAAVSLQCVGPGHYVAQPQSEYAFMRR”, the “soluble on expression in E. coli” value is listed as “not soluble”.

As for “MKHSVHFGAGNIGRGFIGEILFKNGFHIDFVDVNNQIIHALNEKGKYEIEIAQKGQSRIEVTNVAGINSKEHPEQVIEAIQKTDIITTAIGPNILPFIAELLAKGIEARRVAGNTQALDVMACENMIGGSQFLYQEVKKYLSPEGLTFADNYIGFPNAAVDRIVPAQSHEDSLFVVVEPFNEWVVETKRLKNPDLRLKDVHYEED”, the “soluble on expression in E. coli” value is “not soluble”.

For “ALLAVSMVACTSDEIALIEAMSKTSEISSYEGNSKIQLSFKGQGFSEKTQKVFDFLASYVDGFTFEANQKYSSNDEKTKATLAMDGNVDMQGLSVKYKYWTDMDFTTENPSLIQIVELPPAITQPMFTFANTGTKKYITIDYGSVLSAENNGGISLNPENLAKNSVELQEMLLDFVKTTAKDFDPGMVAVTKKGSAVTDKGEKVTEYELKLDDAAAKKLLHAFINDVILQEDTIEFGKKYMEAAINMYDFPEEEKQEALDEINKGLDEFASQLPAYRDSVTQVFESIKDVKFFGDKGLVAKYYINNDGFLVGGKSSIDIKIKMADFAALLGDNFDEKDKNGVLYLTIDAESSVYNINKEVSIELPEITEENSFDVLKGFMPILSGIGSAPGIGEEDYTYDIPALSDGINVVMNGKVVYFPDVKPENVNGRVLVPIRTISEEMGAEVTYNDATKQVLIAKDDTEILLTIGSQEAYVNGEKIMLDVPAMIIEGRTMVPLRFISESMNATVEWDGEAQIVYIFY”, the “soluble on expression in E. coli” value was “not soluble”.

For “ARKIGIIGLGNVGAAVAHGLIAQGVADDYVFIDANEAKVKADQIDFQDAMANLEAHGNIVINDWAALADADVVISTLGNIKLQQDNPTGDRFAELKFTSSMVQSVGTNLKESGFHGVLVVISNPVDVITALFQHVTGFPAHKVIGTGTLLDTARMQRAVGEAFDLDPRSVSGYNLGEHGNSQFVAWSTVRVMGQPIVTLADAGDIDLAAIEEEARKGGFTVLNGKGYTSYGVATSAIRIAKAVMADAHAELVVSNRRDDMGMYLSYPAIIGRDGVLAETTLDLTTDEQEKLLQSRDYIQQRFDEIVDTL”, the “soluble on expression in E. coli” value is reported as “soluble”.

The values are drawn from the DeepSol protein solubility set.
